In patent CN110872351A:

Target: GPC3蛋白 (glypican-3 protein expressed in eukaryotic HEK293 cells) (UniProt P51654)
Assay: sandwich ELISA: coated GPC3 polyclonal antibody, GPC3 protein at varied concentration, GN1-Luc fixed at 0.2 μg/mL, luminescence; the value is a GPC3 concentration

Chain of UniProt P51654 (P51654 25-559 limits assumed): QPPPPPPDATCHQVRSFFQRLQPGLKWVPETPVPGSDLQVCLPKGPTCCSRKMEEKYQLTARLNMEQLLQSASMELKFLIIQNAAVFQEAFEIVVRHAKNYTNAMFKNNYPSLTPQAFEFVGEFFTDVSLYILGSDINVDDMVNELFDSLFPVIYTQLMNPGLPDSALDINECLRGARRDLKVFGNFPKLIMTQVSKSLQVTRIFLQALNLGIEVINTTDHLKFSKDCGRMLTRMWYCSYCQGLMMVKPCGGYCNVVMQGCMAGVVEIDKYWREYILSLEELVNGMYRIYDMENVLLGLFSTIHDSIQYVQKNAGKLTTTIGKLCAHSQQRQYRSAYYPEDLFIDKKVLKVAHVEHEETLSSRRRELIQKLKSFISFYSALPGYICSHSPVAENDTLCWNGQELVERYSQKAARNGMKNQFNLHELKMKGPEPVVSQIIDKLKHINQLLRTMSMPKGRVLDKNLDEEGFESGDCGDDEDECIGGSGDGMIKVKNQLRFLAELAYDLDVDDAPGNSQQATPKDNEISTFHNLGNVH

EC20: 0.0519 µg/mL
EC80: 0.157 µg/mL
B1: 融合蛋白GN1-Luc (fusion of nanobody GN1 and Nano-luciferase) (protein, part only; not given: junction residues and His tag, part only)
chain, part: QVQLVESGGGLVQAGGSLRLSCAASGRTFVGSTMGWFRQAPGKEREFVARMSWLGRSTYYADSVKGRFTISRDNAKNTVYLQMNSLKPEDTAVYYCALALGYIDLARPDAVDAWGQGTLVTVSS
